According to US20100261182A1:

Tests used:
[1] = molecular target: T1, 5-TAMRA-MpTPpYV-NH2 substrate peptide (bis-phosphorylated)
T1 chain: MTPYV

[2] = molecular target: 5-TAMRA-MpTPpYV-NH2 substrate peptide (bis-phosphorylated); assay: cell-based or functional assay
[3] = molecular target: CaMKII alpha isoform (about 50 kDa), phosphorylated at Thr286
[4] = molecular target: CaMKII beta isoform (about 57 kDa), phosphorylated at Thr286

Binder | polarization at a concentration of PPM1E of 33 nM [1] | polarization at a concentration of PPM1E of 0.8 µM [1] | IC50 (EC50) of the PPM1E titration, decrease of polarization [2] [nM] | dephosphorylation of pCaMKII alpha band (western blot) [3] | phosphorylation of CaMKII relative to wildtype HC neurons (western blot) [3] | dephosphorylation of pCaMKII beta band (western blot) [4] | phosphorylation of CaMKII relative to wildtype HC neurons (western blot) [4]
His-PPM1E (PPM1E phosphatase with an N-terminal His-tag, expressed in Sf9 cells) (protein) MAGCIPEEKTYRRFLELFLGEFRGPCGGGEPEPEPEPEPEPEPESEPEPEPELVEAEAAEASVEEPGEEAATVAATEEGDQEQDPEPEEEAAVEGEEEEEGAATAAAAPGHSAVPPPPPQLPPLPPLPRPLSERITREEVEGESLDLCLQQLYKYNCPSFLAAALARATSDEVLQSDLSAHYIPKETDGTEGTVEIETVKLARSVFSKLHEICCSWVKDFPLRRRPQLYYETSIHAIKNMRRKMEDKHVCIPDFNMLFNLEDQEEQAYFAVFDGHGGVDAAIYASIHLHVNLVRQEMFPHDPAEALCRAFRVTDERFVQKAARESLRCGTTGVVTFIRGNMLHVAWVGDSQVMLVRKGQAVELMKPHKPDREDEKQRIEALGGCVVWFGAWRVNGSLSVSRAIGDAEHKPYICGDADSASTVLDGTEDYLILACDGFYDTVNPDEAVKVVSDHLKENNGDSSMVAHKLVASARDAGSSDNITVIVVFLRDMNKAVNVSEESDWTENSFQGGQEDGGDDKENHGECKRPWPQHQCSAPADLGYDGRVDSFTDRTSLSPGSQINVLEDPGYLDLTQIEASKPHSAQFLLPVEMFGPGAPKKANLINELMMEKKSVQSSLPEWSGAGEFPTAFNLGSTGEQIYRMQSLSPVCSGLENEQFKSPGNRVSRLSHLRHHYSKKWHRFRFNPKFYSFLSAQEPSHKIGTSLSSLTGSGKRNRIRSSLPWRQNSWKGYSENMRKLRKTHDIPCPDLPWSYKIE | a polarization of about 147 mP (milli-Polarization) was measured | the polarization decreased to about 123 mP | 160 | – | – | – | –
Full length PPM1E (SEQ ID NO: 1) overexpressed in H4 neuroglioma cells and rat hippocampal primary neurons (protein) MAGCIPEEKTYRRFLELFLGEFRGPCGGGEPEPEPEPEPEPEPESEPEPEPELVEAEAAEASVEEPGEEAATVAATEEGDQEQDPEPEEEAAVEGEEEEEGAATAAAAPGHSAVPPPPPQLPPLPPLPRPLSERITREEVEGESLDLCLQQLYKYNCPSFLAAALARATSDEVLQSDLSAHYIPKETDGTEGTVEIETVKLARSVFSKLHEICCSWVKDFPLRRRPQLYYETSIHAIKNMRRKMEDKHVCIPDFNMLFNLEDQEEQAYFAVFDGHGGVDAAIYASIHLHVNLVRQEMFPHDPAEALCRAFRVTDERFVQKAARESLRCGTTGVVTFIRGNMLHVAWVGDSQVMLVRKGQAVELMKPHKPDREDEKQRIEALGGCVVWFGAWRVNGSLSVSRAIGDAEHKPYICGDADSASTVLDGTEDYLILACDGFYDTVNPDEAVKVVSDHLKENNGDSSMVAHKLVASARDAGSSDNITVIVVFLRDMNKAVNVSEESDWTENSFQGGQEDGGDDKENHGECKRPWPQHQCSAPADLGYDGRVDSFTDRTSLSPGSQINVLEDPGYLDLTQIEASKPHSAQFLLPVEMFGPGAPKKANLINELMMEKKSVQSSLPEWSGAGEFPTAFNLGSTGEQIYRMQSLSPVCSGLENEQFKSPGNRVSRLSHLRHHYSKKWHRFRFNPKFYSFLSAQEPSHKIGTSLSSLTGSGKRNRIRSSLPWRQNSWKGYSENMRKLRKTHDIPCPDLPWSYKIE | – | – | – | PPM1E phosphatase is dephosphorylating the beta isoform (57 kDa) as well as the alpha isoform (50 kDa) of CaMKII | the phosphorylation of CaMKII is decreasing to 50% of the phosphorylation status of wildtype cells by increasing the level of PPM1E expression 12 times | PPM1E phosphatase is dephosphorylating the beta isoform (57 kDa) as well as the alpha isoform (50 kDa) of CaMKII | the phosphorylation of CaMKII is decreasing to 50% of the phosphorylation status of wildtype cells by increasing the level of PPM1E expression 12 times
